# Source: IntAct's records for PubMed 29374162
# B1: Interleukin-3 receptor subunit alpha (Homo sapiens), P26951-1 (parent)
# chain: MVLLWLTLLLIALPCLLQTKEDPNPPITNLRMKAKAQQLTWDLNRNVTDIECVKDADYSMPAVNNSYCQFGAISLCEVTNYTVRVANPPFSTWILFPENSGKPWAGAENLTCWIHDVDFLSCSWAVGPGAPADVQYDLYLNVANRRQQYECLHYKTDAQGTRIGCRFDDISRLSSGSQSSHILVRGRSAAFGIPCTDKFVVFSQIEILTPPNMTAKCNKTHSFMHWKMRSHFNRKFRYELQIQKRMQPVITEQVRDRTSFQLLNPGTYTVQIRARERVYEFLSAWSTPQRFECDQEEGANTRAWRTSLLIALGTLLALVCVFVICRRYLVMQRLFPRIPHMKDPIGDSFQNDKLVVWEAGKAGLEECLVTEVQVVQKT
# partner: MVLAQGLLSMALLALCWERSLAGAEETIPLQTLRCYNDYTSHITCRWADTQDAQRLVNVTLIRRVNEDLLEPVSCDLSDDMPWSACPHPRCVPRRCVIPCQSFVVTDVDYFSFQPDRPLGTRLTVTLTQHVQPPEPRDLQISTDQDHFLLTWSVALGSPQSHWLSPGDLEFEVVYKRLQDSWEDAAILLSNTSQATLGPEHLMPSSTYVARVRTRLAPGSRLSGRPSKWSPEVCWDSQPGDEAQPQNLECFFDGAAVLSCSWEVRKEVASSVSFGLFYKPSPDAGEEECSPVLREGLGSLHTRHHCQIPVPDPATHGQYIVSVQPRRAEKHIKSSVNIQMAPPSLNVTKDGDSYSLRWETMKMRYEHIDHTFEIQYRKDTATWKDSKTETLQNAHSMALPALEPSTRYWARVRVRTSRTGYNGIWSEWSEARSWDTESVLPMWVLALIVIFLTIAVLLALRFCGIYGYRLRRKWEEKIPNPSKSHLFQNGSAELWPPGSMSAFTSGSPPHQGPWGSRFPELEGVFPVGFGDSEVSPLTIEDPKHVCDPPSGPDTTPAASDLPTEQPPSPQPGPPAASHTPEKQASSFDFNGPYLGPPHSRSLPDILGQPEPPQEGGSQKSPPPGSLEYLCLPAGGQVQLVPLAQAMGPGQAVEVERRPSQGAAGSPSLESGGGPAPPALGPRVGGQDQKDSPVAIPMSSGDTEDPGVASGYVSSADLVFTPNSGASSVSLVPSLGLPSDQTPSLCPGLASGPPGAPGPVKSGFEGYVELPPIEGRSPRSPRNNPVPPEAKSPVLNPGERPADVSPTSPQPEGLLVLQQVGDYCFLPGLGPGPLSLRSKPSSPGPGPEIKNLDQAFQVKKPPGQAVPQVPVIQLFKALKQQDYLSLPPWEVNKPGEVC
# Variants of: B1
# Settings: with il3rb_human CSF2RB
row,Variant,effect of a mutation on the interaction
1,C76A;C195A,with no effect
2,D197L,with no effect
